Patent publication US20220064295A1 (ITABMED HK, published 2022)

Experiments:
Assay in all cases: BLI (Octet), antigen-Fc captured on anti-human Fc (AHC) biosensor, MSAP in solution
[1] = molecular target: T1, Recombinant Human CD19 Fc Chimera (R&D Systems, Inc) (human, UniProt P15391 20-291)
T1 construct: Bought reagent; also called huCD19.Fc; human CD19 antigen; Fc part of the bought chimera not given
T1 sequence (looked up): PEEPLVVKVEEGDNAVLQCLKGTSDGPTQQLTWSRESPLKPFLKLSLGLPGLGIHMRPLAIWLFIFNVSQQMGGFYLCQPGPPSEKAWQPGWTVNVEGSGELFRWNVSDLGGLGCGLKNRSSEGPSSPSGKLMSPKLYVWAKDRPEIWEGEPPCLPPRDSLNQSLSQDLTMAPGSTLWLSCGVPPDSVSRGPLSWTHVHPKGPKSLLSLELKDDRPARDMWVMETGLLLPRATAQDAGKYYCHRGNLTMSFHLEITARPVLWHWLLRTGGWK
Protocol: (§1) The expression of the CD3 antigen constructs has been described in U.S. Pat. No. 8,846,042. The CD3 antigen constructs or the CD19 antigen (Cynomolgus/Rhesus CD19 Protein (Fc Tag), Sino Biological. Inc; Recombinant Human CD19 Fc Chimera, R&D Systems. Inc) were diluted to 0.02 mg/mL with dilution (PBS), and then immobilized on an anti-Human Fc capture (AHC) biosensor. […] Control wells containing PBS only were also set up. The detection results were analyzed using ForteBio Data Acquisition and ForteBio Data Analysis software.

[2] = molecular target: T2, Cynomolgus/Rhesus CD19 Protein (Fc Tag) (Sino Biological, Inc) (cynomolgus monkey (Cynomolgus/Rhesus), UniProt F7F486 20-292 (rhesus entry))
T2 construct: Bought reagent; also called cynoCD19.Fc; cynomolgus CD19 antigen
T2 sequence: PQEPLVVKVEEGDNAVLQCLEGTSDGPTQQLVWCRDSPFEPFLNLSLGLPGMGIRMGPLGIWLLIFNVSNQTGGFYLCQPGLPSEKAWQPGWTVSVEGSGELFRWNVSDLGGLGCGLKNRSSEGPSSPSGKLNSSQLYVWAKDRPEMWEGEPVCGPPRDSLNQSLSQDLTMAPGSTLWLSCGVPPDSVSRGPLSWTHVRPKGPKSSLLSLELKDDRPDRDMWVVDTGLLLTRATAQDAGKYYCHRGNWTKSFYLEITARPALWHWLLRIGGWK
Protocol: as §1

[3] = molecular target: T3, cynomolgus CD3 antigen construct cynoCD3εAA 1-27.Fc (cynomolgus monkey; human, UniProt Q95LI5 22-48)
T3 construct: range 1-27; not shown: human IgG Fc
T3 chain (looked up): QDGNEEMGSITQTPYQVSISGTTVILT
Protocol: as §1

B1: ITAB2009 CD19×CD3 MSAP (bispecific antibody)
chain 1: EVQLVESGGGLVQPGGSLRLSCAASGFTFNTYAMNWVRQAPGKGLEWVARIRSKYNNYATYYADSVKDRFTISRDDSKNTLYLQMNSLRAEDTAVYYCVRHGNFGNSYVSWFAYWGQGTMVTVSSGGGGSGGGGSGGGGSQAVVTQEPSLTVSPGGTVTLTCRSSTGAVTTSNYANWVQQKPGQAPRGLIGGTNKRAPGTPARFSGSLLGGKAALTLSGVQPEDEAEYYCALWYSNLWVFGGGTKLTVLSGGGGSQVQLVQSGPELIKPGGSVKMSCKASGYTFTSYVMHWVRQKPGQGLEWIGYINPYNDGTKYNEKFKGRATLTSDKSSSTAYMELSSLRSEDSAVYYCARGTYYYGSRVFDYWGQGTTVTVSSASTKGPSVFPLAPSSKSTSGGTAALGCLVKDYFPEPVTVSWNSGALTSGVHTFPAVLQSSGLYSLSSVVTVPSSSLGTQTYICNVNHKPSNTKVDKKVEPKSCPPCS
chain 2: DVVMTQSPSSIPVTLGESVSISCRSSKSLQNVNGNTYLYWFQQRPGQSPQLLIYRMSNLNSGVPDRFSGSGSGTDFTLRISGVEPEDVGVYYCMQHLEYPITFGAGTKLEIKRTVAAPSVFIFPPSDEQLKSGTASVVCLLNNFYPREAKVQWKVDNALQSGNSQESVTEQDSKDSTYSLSSTLTLSKADYEKHKVYACEVTHQGLSSPVTKSFNRGECPPCS
notes: also called CD19×CD3 MSAP ITAB2009; bivalent format ITAB2009
Kd [1]: 18.2 nM
Kd [2]: 29.6 nM
Kd [3]: 12.9 nM

B2: ITAB2007 CD19×CD3 MSAP (bispecific antibody)
chain 1: DVVMTQSPSSIPVTLGESVSISCRSSKSLQNVNGNTYLYWFQQRPGQSPQLLIYRMSNLNSGVPDRFSGSGSGTDFTLRISGVEPEDVGVYYCMQHLEYPLTFGAGTKLEIKGGGGSGGGGSGGGGSQVQLVQSGPELIKPGGSVKMSCKASGYTFTSYVMHWVRQKPGQGLEWIGYINPYNDGTKYNEKFKGRATLTSDKSSSTAYMELSSLRSEDSAVYYCARGTYYYGSRVFDYWGQGTTVTVSSGGGGSEVQLVESGGGLVQPGGSLRLSCAASGFTFNTYAMNWVRQAPGKGLEWVARIRSKYNNYATYYADSVKDRFTISRDDSKNTLYLQMNSLRAEDTAVYYCVRHGNFGNSYVSWFAYWGQGTMVTVSSASTKGPSVFPLAPSSKSTSGGTAALGCLVKDYFPEPVTVSWNSGALTSGVHTFPAVLQSSGLYSLSSVVTVPSSSLGTQTYICNVNHKPSNTKVDKKVEPKSCPPCS
chain 2: DVVMTQSPSSIPVTLGESVSISCRSSKSLQNVNGNTYLYWFQQRPGQSPQLLIYRMSNLNSGVPDRFSGSGSGTDFTLRISGVEPEDVGVYYCMQHLEYPLTFGAGTKLEIKGGGGSGGGGSGGGGSQVQLVQSGPELIKPGGSVKMSCKASGYTFTSYVMHWVRQKPGQGLEWIGYINPYNDGTKYNEKFKGRATLTSDKSSSTAYMELSSLRSEDSAVYYCARGTYYYGSRVFDYWGQGTTVTVSSGGGGSQAVVTQEPSLTVSPGGTVTLTCRSSTGAVTTSNYANWVQQKPGQAPRGLIGGTNKRAPGTPARFSGSLLGGKAALTLSGVQPEDEAEYYCALWYSNLWVFGGGTKLTVLGQPKAAPSVTLFPPSSEELQANKATLVCLISDFYPGAVTVAWKADSSPVKAGVETTTPSKQSNNKYAASSYLSLTPEQWKSHRSYSCQVTHEGSTVEKTVAPTECPPCS
notes: One anti-CD19 scFv is fused at the N-terminus of the VH and a second at the N-terminus of the VL of an anti-CD3 Fab fragment; also called CD19×CD3 MSAP ITAB2007; bispecific trivalent ITAB2007
Kd [1]: 0.891 nM
Kd [2]: 8.91 nM
Kd [3]: 18.8 nM
